Test results reported in article PMC6395754.

Molecular target: profilin1 (PFN1) (UniProt P07737)
Assay: GST-PFN1 pull-down from cell lysate
Conditions: reference: wild type

Row | binding against the reference (sites S629) | binding against the reference (sites S665) | Substance
1 | stronger |  | DIAPH1 (from UniProt O60610) S629A
2 |  | stronger | DIAPH1 (from UniProt O60610) S665A
